Assay results published in US20150191546A1.

Target: recombinant PR1/HLA-A*0201 monomer (human)
Test: SPR (Biacore), antibody captured, peptide/HLA-A2 as analyte

Kd: 0.162 µM
Substance: BB7.2 murine monoclonal antibody (HLA-A*0201 allele-specific mouse IgG2a)
